Assay [1] has as its system anti-HPA-1a antibody. The experiment in a line: Immunocapture with wells coated with Trx-HPA-1a. It is filed as binding, human. As to conditions: wells coated with 50 or 100 ng; sera with anti-HPA-1a (1-2), anti-HPA-1b (3), negative control (4); FIG. 6. As to the method: The following serums were used: two samples containing anti-HPA-1a antibody (1-2), one sample containing anti-HPA-1b antibody (3), one negative control (4). Wells were coated with 50 or 100 ng of Trx-HPA-1a protein.
Immunocapture is a classical technique to detect IgG antibodies directed against platelets according to the technique published by Rachel et al. (Med Lab Sci: 1985, 42; 194-199).
Herein, Interaction between Trx-HPA-1a and human sera containing Ab against platelet HPA-1a is tested by immunocapture. A solid phase system for the detection of IgG Antibodies to platelets assay is used (Capture P®, Immucor). The pool of platelets is replaced by Trx-HPA-1a protein. Microtitration plates with conics well are coated overnight at 4° C. with 50 ng or 100 ng of Trx-HPA-1a per well in carbonate buffer (15 mM Na2CO3, 35 mM NaHCO3 in deionised water). After washing with PBS, 50 μl serum of anonymous donor is added into the wells and incubated at 37° C. for 45 min. After six washes, 50 μl of Capture-P indicating erythrocytes (red blood cell carrying anti-human IgG antibody).

In assay [2] the test system is anti-HPA-1a antibody. As to the kind of experiment: ELISA with plates coated with Trx-HPA-1a, detection of HPA-1a specific antibodies in human sera. The assay is classed as binding. As to conditions: 150 ng Trx-HPA-1a per well. How it is done:
The plates were rinsed two times with 200 μL PBS. Nonspecific binding was blocked by placing 200 μL PBS containing 1% bovine serum albumin (BSA) (A7030, Sigma) for 100 minutes at room temperature (RT). Then, the plates were rinsed one time with 200 μL PBS and again incubated for 45 min at RT on shaking incubator with human sera diluted (1:100 to 4:5) in 100 μl PBS+1% BSA. After three washes with PBS containing 0.05% Tween 20 and one washes with PBS, the plates were incubated for 40 min at RT on a shaking incubator with HRP-conjugated Goat Anti-Human IgG, Fc fragment specific (Jackson ImmunoResearch). After three washes with PBS+0.05% Tween 20 and two washes with PBS, the binding of anti-HPA-1 antibody was detected by addition of peroxidase substrate (OPD:1,2-phenylenediamine dihydrochloride) according to manufacturer's instructions (DakoCytomation). 20 min later, the reaction was stopped by adding 100 μL 0.5 M H2SO4. The absorption was registered at 492 nm with ELISA plate reader. The OD evolution at 492 nm depends on anti HPA-1a titer in the serum. […] Samples named Sch and Pan contained anti-HPA-1a antibody while sample Neg is a negative control from healthy donor. For high dilution (1/50) the OD is <0.05 for Neg. Serum whereas OD>0.23 for Sch and Pan. The situation is the same at low dilution (1/2) with the OD<0.11 for Neg. and >0.66 for Sch and Pan.
The detection of HPA-1a specific antibodies in human sera is determined by an ELISA test using microtitration plates (Nunc) coated overnight at 4° C. with 100 ng of Trx-HPA-1a per well in carbonate buffer. The plates are rinsed two times with 250 μL PBS. Nonspecific sites are blocked by a 1 h 30 min incubation at 20-25° C. with 250 μl PBS containing 1% bovine serum albumin (BSA) (A7030, Sigma). The plates are rinsed one time with 250 μL PBS and then incubated for 45 min at 20-25° C. on a shaking incubator with 10 μl of human sera diluted in 100 μl PBS 1% BSA. After three washes with PBS containing 0.05% Tween 20 and one wash with PBS, the plates are incubated for 40 min at 20-25° C. on a shaking incubator with HRP-conjugated Goat Anti-Human IgG, Fc fragment specific (Jackson ImmunoResearch). After three washes with PBS 0.05% Tween 20 and two washes with PBS, the binding of the anti-HPA-1 antibody is detected by addition of peroxidase substrate OPD (1,2-phenylenediamine dihydrochloride) (DakoCytomation) according to manufacter's instruction. Absorption is measured at 492 nm and followed during 25-30 min using ELISA plate reader. To stop reaction 100 μl 0.5 M H2SO4 is added on the well. Then the curve of evolution of absorbance according to the incubation's times of OPD is analyzed.

Another assay has as its system Camtran antibody. The experiment in a line: Neutralisation of Camtran antibody in MAIPA assay. The assay is classed as binding. Conditions: 15 ng of Camtran in 50 μL human serum without polyclonal anti-HPA-1a; FIG. 8b. As to the method:
Two different dates of production were use to compare stability in time, (b) the neutralisation of Camtran antibody in MAIPA assay with Trx-HPA-1a. 100 ng of Trx-HPA-1a is sufficient to inhibit Camtran in MAIPA assay and (c) the neutralisation of 2 human sera containing specific HPA-1a antibodies (anti-HPA-1a).
(§1) In this experiment, the ability of Trx-HPA-1a to neutralize the binding of human IgG HPA-1a specific polyclonal alloantibodies is determined by the MAIPA technology. The MAIPA technology is used as described by Kiefel et al. (Blood: 1987, 70; 1722-1727). The MAIPA technology is a more specific technique to detect and identify platelets' allo- and autoantibodies.
In particular, 50 μL of human serum containing or not polyclonal anti-HPA-1a or 15 ng of Camtran in 50 μL human serum without polyclonal anti-HPA-1a is incubated for 25 min at 20-25° C. with shaking incubator with 0, 1 ng, 10 ng, 100 ng or 1000 ng of Trx-HPA-1a diluted in 20 μL PBS. […] The neutralization of serum is then determined as usual using the MAIPA technique.
Increasing concentrations of Trx-HPA-1a (0, 1 ng, 10 ng, 100 ng and 1000 ng) diluted in 30 μL PBS are added to 50 μL of human serum containing or not polyclonal anti-HPA-1a or 15 ng of Camtran diluted in 50 μL human serum without polyclonal anti-HPA-1a. […] The neutralization of 50 μL of supernatant serum is then determined as usual using the MAIPA technique.

The test system of assay [3] is human IgG HPA-1a specific polyclonal alloantibodies. The experiment in a line: Neutralisation (immuno-depletion) of anti-HPA-1a alloantibodies of human serum in MAIPA assay. It is filed as binding. On the set-up: key to neutr.: (−) negative; (+) positive; (−/+) first tested negative but positive later on. How it is done: as §1
In particular, 50 μL of human serum containing or not polyclonal anti-HPA-1a or 15 ng of Camtran in 50 μL human serum without polyclonal anti-HPA-1a is incubated for 25 min at 20-25° C. with shaking incubator with 0, 1 ng, 10 ng, 100 ng or 1000 ng of Trx-HPA-1a diluted in 20 μL PBS. The mixture is preincubated 5 min with 3 μl of Ni-NTA agarose beads and the complex alloantibodies/Trx-HPA-1a is pulled down by centrifugation 13000 rpm, 2 min. 50 μl of supernatant is used to perform the MAIPA. The neutralization of serum is then determined as usual using the MAIPA technique.
Increasing concentrations of Trx-HPA-1a (0, 1 ng, 10 ng, 100 ng and 1000 ng) diluted in 30 μL PBS are added to 50 μL of human serum containing or not polyclonal anti-HPA-1a or 15 ng of Camtran diluted in 50 μL human serum without polyclonal anti-HPA-1a. After incubation at 20-25° C. for 25 min, the mixture is pre-incubated with 3 μl of Ni-NTA agarose beads and the complex alloantibodies or Camtran/Trx-HPA-1a is pulled down by centrifugation at 13000 rpm for 2 min. The neutralization of 50 μL of supernatant serum is then determined as usual using the MAIPA technique.
Blood samples (Table 1, left) are from anonymous donors or from NAIT patients. MAIPA is performed on either crude serum (Table 1, “MAIPA”) or protein A-purified immunoglobulins (Table 1, “MAIPA pure”). The vast majority of donors is found negative using both MAIPA and ELISA. […] Therefore a given sample is indexed as negative using ELISA if d 20D/dt^2=0. […] Consequently, a given sample is negative with the ELISA described herein if it fulfills one of the following criteria: optical density below 0.1 (end point) or d^2OD/dt2=0 (time course). It should be pointed out that all samples found to be negative with the end point protocol, are found negative with the time course protocol as well. […] Genotyping for HPA locus is shown (Table 1, “geno.”).

The text below walks through data of patent publication US8183055B2, “Peptide aptamer for neutralizing the binding of platelet antigen specific antibodies and diagnostic and therapeutic applications containing the same” (Stiftung für Diagnostische Forschung, priority 2006, dated 2012).

B1: Trx-HPA-1a: dodecapeptide VVAGDDPREDTW (SEQ ID NO:1) fused into the active site of thioredoxin, with His-tag; protein SEQ ID NO:2 (protein, listed as Homo sapiens)
chain: MMSDKIIHLTDDSFDTDVLKADGAILVDFWAEWCGPVVAGDDPREDTWGPCKMIAPILDEIADEYQGKLTVAKLNIDQNPGTAPKYGIRGIPTLLLFKNGEVAATKVGALSKGQLKEFLDANLVDLQHHHHHH
As to B1, the “interaction with Trx-HPA-1a in immunocapture” value in the assay on anti-HPA-1a antibody [1] is on record as “only detected with serums containing the anti-HPA-1a antibody”. Further, the “OD at 492 nm” value with anti-HPA-1a antibody [2] (Neg serum (healthy donor), dilution 1/2) is less than 0.11; in the assay with anti-HPA-1a antibody [2] (Neg serum (healthy donor), dilution 1/50), less than 0.05; in the assay on anti-HPA-1a antibody [2] (Sch and Pan sera (contain anti-HPA-1a), dilution 1/2) it was more than 0.66; in the assay with anti-HPA-1a antibody [2] (Sch and Pan sera (contain anti-HPA-1a), dilution 1/50), more than 0.23. Further, the “amount sufficient to inhibit Camtran in MAIPA assay” value in the assay with Camtran antibody came out at 100 ng. The neutr. result in assay [3] (patient sample Ac mB2), in assay [3] (patient sample Pan) and in assay [3] (patient sample Sch) was “+” throughout. The “immuno-depletion of samples from NAIT patients” value in assay [3] (three samples (Pan, Sch, Ac mB2)) is on record as “successfully carried out”.
